{"source": "paper PMC3656124", "about": "“DNA Topoisomerase II Is Involved in Regulation of Cyst Wall Protein Genes and Differentiation in Giardia lamblia” (PLoS Neglected Tropical Diseases, 2013)", "binders": {"B1": {"name": "IIBS (dsDNA)", "DNA 1": "ATGAAATCTAACAATGCGCTCATCGTCATCCTCGGC", "DNA 2": "GCCGAGGATGACGATGAGCGCATTGTTAGATTTCAT"}}, "key": {"[1]": {"biological_target": "T1, Topo II (Giardia lamblia, UniProt E2RU90 1-1491)", "T1 sequence": "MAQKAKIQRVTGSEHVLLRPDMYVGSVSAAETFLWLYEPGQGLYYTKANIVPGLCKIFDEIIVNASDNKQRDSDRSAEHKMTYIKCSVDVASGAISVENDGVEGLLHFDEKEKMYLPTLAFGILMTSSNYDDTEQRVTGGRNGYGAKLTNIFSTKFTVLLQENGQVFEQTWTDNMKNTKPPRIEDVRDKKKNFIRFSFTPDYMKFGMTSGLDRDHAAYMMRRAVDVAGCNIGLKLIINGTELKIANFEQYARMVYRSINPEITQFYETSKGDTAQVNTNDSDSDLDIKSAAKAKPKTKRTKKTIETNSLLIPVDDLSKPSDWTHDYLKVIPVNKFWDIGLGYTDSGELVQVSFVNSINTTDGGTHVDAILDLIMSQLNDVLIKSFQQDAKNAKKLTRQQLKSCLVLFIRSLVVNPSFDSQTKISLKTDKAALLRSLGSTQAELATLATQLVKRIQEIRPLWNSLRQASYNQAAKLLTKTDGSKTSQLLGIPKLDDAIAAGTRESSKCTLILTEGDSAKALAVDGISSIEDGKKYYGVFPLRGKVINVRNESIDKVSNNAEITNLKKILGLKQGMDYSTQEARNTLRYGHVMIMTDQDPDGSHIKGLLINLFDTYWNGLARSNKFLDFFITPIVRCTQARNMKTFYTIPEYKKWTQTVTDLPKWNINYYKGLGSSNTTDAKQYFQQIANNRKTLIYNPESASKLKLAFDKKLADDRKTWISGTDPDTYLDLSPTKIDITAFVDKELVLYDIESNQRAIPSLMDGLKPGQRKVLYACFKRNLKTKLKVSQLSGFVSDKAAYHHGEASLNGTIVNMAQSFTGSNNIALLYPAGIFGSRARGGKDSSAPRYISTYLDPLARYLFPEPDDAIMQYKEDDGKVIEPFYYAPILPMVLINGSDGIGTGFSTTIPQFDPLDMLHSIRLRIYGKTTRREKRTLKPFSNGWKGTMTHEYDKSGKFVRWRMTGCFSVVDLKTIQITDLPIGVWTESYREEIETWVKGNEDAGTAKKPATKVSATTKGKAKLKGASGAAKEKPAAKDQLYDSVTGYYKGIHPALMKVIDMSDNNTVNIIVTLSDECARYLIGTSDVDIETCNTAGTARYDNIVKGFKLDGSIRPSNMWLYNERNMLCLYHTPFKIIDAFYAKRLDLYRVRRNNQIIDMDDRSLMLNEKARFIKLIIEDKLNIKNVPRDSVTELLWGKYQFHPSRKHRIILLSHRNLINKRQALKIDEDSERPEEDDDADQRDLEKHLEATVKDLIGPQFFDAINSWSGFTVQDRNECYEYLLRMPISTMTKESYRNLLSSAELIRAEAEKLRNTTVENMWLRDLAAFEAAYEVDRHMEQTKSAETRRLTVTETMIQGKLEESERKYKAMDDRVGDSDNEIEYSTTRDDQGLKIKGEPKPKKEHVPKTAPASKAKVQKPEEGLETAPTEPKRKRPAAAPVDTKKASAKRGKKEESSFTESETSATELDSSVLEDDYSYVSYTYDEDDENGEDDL", "experiment": "EMSA; EMSA: 0.02 pmol 5'-labeled probe, 5 ng protein, 20 ul, 0.5 ug poly(dI-dC), 15 min, room temperature, 6% acrylamide gel; buffer, salt and pH only by citation", "conditions": "protein: recombinant; tags: C-terminal V5-His; chain copies: 2; label: 5'-32P"}, "[2]": {"biological_target": "T2, Topo IICm1 (Giardia lamblia, UniProt E2RU90 489-1491, Y847H)", "T2 sequence": "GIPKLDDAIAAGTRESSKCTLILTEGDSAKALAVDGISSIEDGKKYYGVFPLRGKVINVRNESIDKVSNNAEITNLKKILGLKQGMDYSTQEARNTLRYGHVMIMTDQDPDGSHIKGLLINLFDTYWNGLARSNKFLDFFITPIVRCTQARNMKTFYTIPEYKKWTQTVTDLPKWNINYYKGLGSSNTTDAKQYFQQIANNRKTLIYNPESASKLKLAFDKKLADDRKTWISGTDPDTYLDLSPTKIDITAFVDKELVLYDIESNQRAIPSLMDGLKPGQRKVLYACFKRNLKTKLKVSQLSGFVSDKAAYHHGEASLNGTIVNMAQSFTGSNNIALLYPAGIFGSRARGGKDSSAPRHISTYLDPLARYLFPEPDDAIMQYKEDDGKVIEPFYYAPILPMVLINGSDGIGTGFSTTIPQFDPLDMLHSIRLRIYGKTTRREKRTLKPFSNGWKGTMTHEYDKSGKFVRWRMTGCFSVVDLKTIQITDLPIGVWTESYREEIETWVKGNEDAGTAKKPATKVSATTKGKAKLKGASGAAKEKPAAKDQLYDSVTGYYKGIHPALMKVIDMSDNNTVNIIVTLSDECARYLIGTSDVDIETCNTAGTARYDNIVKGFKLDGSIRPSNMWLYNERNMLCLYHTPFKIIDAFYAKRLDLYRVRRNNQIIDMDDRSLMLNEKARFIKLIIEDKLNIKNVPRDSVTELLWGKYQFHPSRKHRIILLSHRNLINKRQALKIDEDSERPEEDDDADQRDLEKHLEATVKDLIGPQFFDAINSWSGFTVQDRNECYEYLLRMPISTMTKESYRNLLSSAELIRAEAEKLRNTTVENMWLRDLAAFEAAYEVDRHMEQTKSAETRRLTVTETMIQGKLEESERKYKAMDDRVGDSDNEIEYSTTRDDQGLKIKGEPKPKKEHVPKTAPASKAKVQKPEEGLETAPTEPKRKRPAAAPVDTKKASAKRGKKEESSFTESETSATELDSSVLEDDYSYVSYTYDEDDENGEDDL", "experiment": "EMSA; EMSA: 0.02 pmol 5'-labeled probe, 5 ng protein, 20 ul, 0.5 ug poly(dI-dC), 15 min, room temperature, 6% acrylamide gel; buffer, salt and pH only by citation", "conditions": "protein: recombinant; tags: C-terminal V5-His; chain copies: 2; label: 5'-32P"}}, "data": [{"binder": "B1", "values": [{"measurement": "binding result", "setting": "[1]", "value": "binds"}, {"measurement": "binding result", "setting": "[2]", "value": "binds"}]}]}
